Molecular target: 5(6)-TAMRA-Ahx(5-24)NPY (porcine)
Test: fluorescence polarisation; homogenous binding assay; 5 nM 5(6)-TAMRA-Ahx(5-24)NPY with increasing concentrations of affinity purified Y2R_cysteine_deficient in Brij-58 micelles in binding buffer, 60 min, room temperature; fall of fluorescence in the S-plane; the paper says that the EC50 constitutes the Kd

B1: Y2R_cysteine_deficient with C-terminal deca-histidine-tag (cell-free expressed) (receptor)
chain: MGPIGAEADENQTVEEMKVEQYGPQTTPRGELVPDPEPELIDSTKLIEVQVVLILAYASIILLGVIGNSLVIHVVIKFKSMRTVTNFFIANLAVADLLVNTLSLPFTLTYTLMGEWKMGPVLCHLVPYAQGLAVQVSTITLTVIALDRHRSIVYHLESKISKRISFLIIGLAWGISALLASPLAIFREYSLIEIIPDFEIVACTEKWPGEEKSIYGTVYSLSSLLILYVLPLGIISFSYTRIWSKLKNHVSPGAANDHYHQRRQKTTKMLVAVVVVFAVSWLPLHAFQLAVDIDSQVLDLKEYKLIFTVFHIIAMASTFANPLLYGWMNSNYRKAFLSAFRAEQRLDAIHSEVSVTFKAKKNLEVRKNSGPNDSFTEATNV
B1 was tested, and the EC50 was 49 nM.

— article PMC6405639
